Blank lines part the entries; values can stand above or below the molecule they belong to.
B1: Rpn13 extreme C-terminal pentapeptide (DMSLD; residues 403-407) (peptide)
peptide: DMSLD
notes: also called DMSLD peptide; DMSLD pentapeptide; source: synthetic peptide, bought: Alta BioScience (Birmingham, UK)
B2: TPR domain of SGTA (small, glutamine-rich, tetratricopeptide repeat protein alpha), residues 84-211 (domain or fragment, human, UniProt O43765 84-211, looked up)
chain: SEEDSAEAERLKTEGNEQMKVENFEAAVHFYGKAIELNPANAVYFCNRAAAYSKLGNYAGAVQDCERAICIDPAYSKAYGRMGLALSSLNKHVEAVAYYKKALELDPDNETYKSNLKIAELKLREAPS
notes: human SGTA, central TPR domain, residues 84-211; 15N-labelled (M9 medium) where it was the observed species in NMR; unlabelled otherwise; not shown: thioredoxin A (TxA), N-terminal, cleaved; His6, N-terminal, cleaved

What was measured:
SGTA-V5 = SGTA-V5 (UniProt O43765)
Sequence of SGTA-V5 (O43765 whole entry): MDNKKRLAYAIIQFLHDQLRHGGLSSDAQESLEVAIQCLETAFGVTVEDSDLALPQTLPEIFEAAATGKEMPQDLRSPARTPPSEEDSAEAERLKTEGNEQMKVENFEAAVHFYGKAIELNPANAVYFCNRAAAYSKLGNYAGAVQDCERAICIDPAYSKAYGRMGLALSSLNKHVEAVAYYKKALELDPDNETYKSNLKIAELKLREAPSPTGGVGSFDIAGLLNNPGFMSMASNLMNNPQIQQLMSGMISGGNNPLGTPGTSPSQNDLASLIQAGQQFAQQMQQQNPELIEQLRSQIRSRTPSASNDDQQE

[1] = target: B2; test: ITC; SGTA_TPR at 1 mM injected into Rpn13 or DMSLD peptide at 50 μM in the cell; 25 °C, 10 mM potassium phosphate pH 6.0, 100 mM NaCl, 250 μM TCEP; one site assumed (n = 1); conditions: both partners purified
[2] = target: T1, spin labelled K398C Rpn13_(260-407) mutant (human, UniProt Q16186 260-407, K398C, paramagnetic MTSL or diamagnetic dMTSL label incorporated via the K398C cysteine); test: NMR paramagnetic relaxation enhancement; 15N-labelled SGTA_TPR mixed with MTSL or dMTSL labelled K398C Rpn13_(260-407) at a 1:1.2 ratio, 200 μM; 10 mM potassium phosphate pH 6.0, 100 mM NaCl; 1H-15N HSQC; conditions: both partners purified
T1 construct: The paramagnetic and the diamagnetic sample are written as one molecule: the PRE read-out is the ratio of the two; source: E. coli BL21(DE3) Rosetta, purified, then labelled with MTSL or dMTSL; not shown: thioredoxin A (TxA), N-terminal, cleaved; His6, N-terminal, cleaved

[3] = target: B1; test: ITC; SGTA_TPR at 1 mM injected into Rpn13 or DMSLD peptide at 50 μM in the cell; 25 °C, 10 mM potassium phosphate pH 6.0, 100 mM NaCl, 250 μM TCEP; one site assumed (n = 1); conditions: both partners purified
[4] = target: T2, Rpn13 C-terminal domain, residues 260-407 (human, UniProt Q16186 260-407); test: as above; conditions: both partners purified
T2 construct: 15N-labelled where it was the observed species in NMR; unlabelled otherwise; not shown: thioredoxin A (TxA), N-terminal, cleaved; His6, N-terminal, cleaved

[5] = target: T2, Rpn13 C-terminal domain, residues …; test: NMR titration; 1H-15N HSQC chemical shift perturbation; unlabelled SGTA_TPR (wild type or K160E/R164E) titrated into 15N-labelled Rpn13_(260-407); 25 °C, 10 mM potassium phosphate pH 6.0, 100 mM NaCl, 250 μM TCEP; conditions: both partners purified
[6] = target: T3, TPR domain of SGTA (SGTA_TPR) (Homo sapiens, UniProt O43765); test: Size exclusion chromatography (SEC) complex formation with SGTA_TPR; format: binding; conditions: mixed in 1:1 molar ratio
T3 construct: thioredoxin A (TxA) fusion (N, cleaved yes); hexahistidine tag (N, cleaved yes); made in house; host or cells: E. coli BL21(DE3) Rosetta
Experimental: In order to understand molecular details underlying the interaction between SGTA and Rpn13, solution NMR studies were carried out on excised domains of SGTA and Rpn13 guided by earlier mapping studies. Reciprocal chemical shift perturbation (CSP) experiments were performed by titrating unlabelled Rpn13 C-terminal domain (residues 260–407; hereafter described as Rpn13_260-407) into ^15N-labelled TPR domain of SGTA (residues 84–211; hereafter referred to as SGTA_TPR) and vice versa. Assignments of backbone amide resonances were obtained from the BMRB (accession numbers 5709 and 17286, for SGTA_TPR and Rpn13_260-407, respectively). The ^1H-^15N HSQC spectra of both SGTA_TPR and Rpn13_260-407 show binding in a fast exchange regimen (Figs 1A and 2A). […] Binding was further confirmed by size-exclusion chromatography (SEC) and isothermal titration calorimetry (ITC) (Fig. 1C,D). […]
SGTA_TPR and Rpn13 plasmids were transformed into E. coli BL21(DE3) Rosetta cells, with protein expression induced by adding 0.3–0.5 mM isopropyl-β-D-thiogalactopyranoside (IPTG) to bacterial cultures in LB media at OD600 ≈ 0.8, followed by overnight incubation at 18 °C. […] Proteins were concentrated using Vivaspin concentrators (Sartorius Stedin) and sample purity and homogeneity was assessed by SDS-PAGE, mass spectrometry and NMR. […]

[7] = target: T3, TPR domain of SGTA (SGTA_TPR); test: Isothermal titration calorimetry (ITC), SGTA_TPR titrated into Rpn13 or DMSLD peptide; format: binding; conditions: 20 injections of 2 μL of 1 mM SGTA_TPR into 50 μM Rpn13_260-402, pH 6.0, 25 °C
Experimental: ITC experiments were performed using an ITC-200 microcalorimeter from Microcal (GE Healthcare) at 25 °C following the standard protocol as reported previously. Proteins or peptide samples were prepared in 10 mM potassium phosphate pH 6.0, 100 mM NaCl, 250 μM TCEP. In each titration, either 40 injections of 1 μL or 20 injections of 2 μL of SGTA_TPR each, at a concentration of 1 mM, were added to a sample of Rpn13 or the Rpn13 derived DMSLD peptide at a concentration of 50 μM in the reaction cell. A nonlinear least-squares minimization algorithm was applied to integrated heat data obtained for the titrations, corrected for heats of dilution, in order to fit the experimentally obtained values to a theoretical titration curve. This was performed using the MicroCal-Origin 7.0 software package. ΔH (reaction enthalpy change in kcal/mol), Kb (equilibrium binding constant in per molar), and n (molar ratio between the proteins in the complex) were used as fitting parameters. The reaction entropy, ΔS, was calculated using the relationships ΔG = −RT lnKb (R = 8.314 J/(mol K), T 298 K) where ΔG = ΔH − TΔS. Dissociation constants (Kd) have been determined for each interaction. Binding was assumed to be at one site (n = 1), to determine the binding affinity (Kd) and thermodynamic parameters.

[8] = target: T3, TPR domain of SGTA (SGTA_TPR); test: Solution NMR CSP titration of unlabelled ligand into 15N-labelled SGTA_TPR; format: binding; conditions: unlabelled ligand into 15N-labelled SGTA_TPR; pH 6.0, 25 °C; Rpn13_260-407 up to 8 equivalents, Rpn13_260-402 up to 6-fold molar excess
Experimental: In order to understand molecular details underlying the interaction between SGTA and Rpn13, solution NMR studies were carried out on excised domains of SGTA and Rpn13 guided by earlier mapping studies. Reciprocal chemical shift perturbation (CSP) experiments were performed by titrating unlabelled Rpn13 C-terminal domain (residues 260–407; hereafter described as Rpn13_260-407) into ^15N-labelled TPR domain of SGTA (residues 84–211; hereafter referred to as SGTA_TPR) and vice versa. Assignments of backbone amide resonances were obtained from the BMRB (accession numbers 5709 and 17286, for SGTA_TPR and Rpn13_260-407, respectively). The ^1H-^15N HSQC spectra of both SGTA_TPR and Rpn13_260-407 show binding in a fast exchange regimen (Figs 1A and 2A). […] Binding was further confirmed by size-exclusion chromatography (SEC) and isothermal titration calorimetry (ITC) (Fig. 1C,D). […] ITC experiments yield a dissociation constant of 16.1 ± 1.4 μM in keeping with the value obtained from NMR.
Protein samples at concentrations between 300 μM and 1 mM were prepared in 10% D2O (Sigma Aldrich), 10 mM potassium phosphate pH 6.0, 100 mM NaCl and 250 μM TCEP buffer (with 10 μM DSS for proton chemical shift referencing). All NMR experiments were acquired in 5 mm NMR tubes at 25 °C on 500 MHz and 700 MHz Bruker Avance spectrometers equipped with cryoprobes and operated by the TopSpin 3.1 software package. All NMR spectra were processed with TopSpin and analysed with CcpNMR Analysis[35]. Proteins used for NMR titrations were dialysed overnight against the same buffer (10 mM potassium phosphate pH 6.0, 100 mM NaCl and 250 μM TCEP) and mixed in different molar ratios, with the concentration of the labelled protein maintained constant. ^1H-^15N HSQC experiments were recorded for each titration point at 25 °C. Chemical shift perturbation (CSP) values were calculated for each amide signal using the following formula: […]
where Δδ1H and Δδ15N are the chemical shift differences for the same amide in its free and bound state (δfree−δbound) and for proton and nitrogen chemical shift values respectively. […]

Molecule: B1
Kd [1]: 71.9 ± 13.3 µM

Molecule: B2
binding result [2]: binds
dH [3]: -4.97 ± 0.41 kcal/mol
Kd [4]: 16.1 ± 1.4 µM
dH [4]: -3.37 ± 0.08 kcal/mol
Kd [5]: 3.27 ± 0.87 µM

More lines, main results first:

fold increase of steady state OP91 level (quantitative western blot) in HeLa TRex Flp-In cells co-expressing SGTA-V5 and Rpn13 (150-402), against the Rpn13 (150-407) control (SGTA-V5): 3 fold
Molecule: FLAG tagged mouse Rpn13 (150-402) (from UniProt Q9JKV1 150-402) (domain or fragment)

ITC binding, result in words [7]: abrogation of binding with SGTA_TPR
ITC binding, result in words ([7]; listed as Rpn13260-402): does not interact
B3: Rpn13_260-402: Rpn13 construct devoid of the C-terminal pentapeptide (residues 260–402) (protein)
chain: QPIQLSDLQSILATMNVPAGPAGGQQVDLASVLTPEIMAPILANADVQERLLPYLPSGESLPQTADEIQNTLTSPQFQQALGMFSAALASGQLGPLMCQFGLPAEAVEAANKGDVEAFAKAMQNNAKPEQKEGDTKDKKDEEE
modifications: left off: thioredoxin A (TxA), N-terminal, cleaved | His6, N-terminal, cleaved
SEC complex formation with SGTA_TPR [6]: no evidence of an interaction
CSP of SGTA_TPR backbone amide signals, result in words [8]: no perturbation of SGTA_TPR backbone amide signals
